This passage reports response results from publication PMC6945068.

The target of the experiment is ^35S-labelled in vitro-translated Flag-B56γ (X. laevis PP2A regulatory B subunit B56γ). As to the kind of experiment: pull-down (amylose beads) with autoradiography quantification. Conditions: 1 h, read off a plot.

Sequence of MBP-fused Apc1-loop^500 wild type (residues 515-584 of Xenopus tropicalis Apc1) (Q08D52 entry or part of it, stated change not applied): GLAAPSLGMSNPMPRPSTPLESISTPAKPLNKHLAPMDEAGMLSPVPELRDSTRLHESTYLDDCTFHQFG

Consider “MBP-fused Apc1-loop^500 wild type (residues 515-584 of Xenopus tropicalis Apc1) (from UniProt Q08D52) T532A; T539A; S558A”, for which the response (anaphase extract (Ana) supplemented with CycB∆167, 23°C, lane 16, parent: est. 3.3) amounted to 1.1 A.U and the response (interphase extract (Inter), 23°C, lane 12, parent: est. 0.95) turned out to be 1.1 A.U.
